Assay results as given in the DeepSol protein solubility set.

Assay: soluble on expression in E. coli; label from the status in PepcDB or PDB records
In the case of “DTGTISTEEFYNFDNWKGFGYELFEDWSRWVYDWLPDGWNLWKELDRNRSGQYHIYDPLALDLDGDGIETVAAKGFSGSLFDHNGNGIRTATGWVSADDGLLVRDLNGNGIIDNGAELFGDNTKLADGSFAKHGYAALAELDSNGDNIINAADAAFQSLRVWQDLNQDGISQANELRTLEELGIQSLDLAYKDVNKNLGNGNTLAQQGSYTKTDGTTAKMGDLLLAADNLHSRFTNKMLSISHVRENTISPFVLGCLNK”, the “soluble on expression in E. coli” value is reported as “not soluble”.
For “DVTPRRDAEYPPPEFLEAMKPLREICIKKTGVTEEAIIEFSDGKVHEDENLKCYMNCLFHEAKVVDDTGHVHLEKLHDALPDSMHDIALHMGKRCLYPEGENLCEKAFWLHKCWKESDPKHYFLI”, the “soluble on expression in E. coli” value was “soluble”.
For “EDPFQPEIKVRCVCGNSLETDSMIQVIWDELTAFIPCEDPRCHVWQHVGCVILPDKPMDGNPPLPESFYCEICRLT”, the “soluble on expression in E. coli” value was “soluble”.
For “EEILGSLFLKKKKKKKKKKSRNHRYFALLLPIRKMKKFFDSRREQGGSGLGSGSSGGGGSTSGLGSGYIGRVFGIGRQQVTVDEVLAEGGFAIVFLVRTSNGMKCALKRMFVNNEHDLQVCKREIQIMRDLSGHKNIVGYIDSSINNVSSGDVWEVLILMDFCRGGQVVNLMNQRLQTGFTENEVLQIFCDTCEAVARLHQCKTPIIHRDLKVENILLHDRGHYVLCDFGSATNKFQNPQTEGVNAVEDEIKKYTTLSYRAPEMVNLYSGKIITTKADIWALGCLLYKLCYFTLPFGESQVAICDGNFTIPDNSRYSQDMHCLIRYMLEPDPDKRPDIYQVSYFSFKLLKKECPIPNVQNSPIPAKLPEPVKASEAAAKKTQPKARLTDPIPTTETSIAPRQRPKAGQTQPNPGILPIQPALTPRKRATVQPPPQAAGSSNQPGLLASVPQPKPQAPPSQPLPQTQAKQPQAPPTPQQTPSTQAQGLPAQAQATPQHQQQLFLKQQQQQQQPPPAQQQPAGTFYQQQQAQTQQFQAVHPATQQPAIAQFPVVSQGGSQQQLMQNFYQQQQQQQQQQQQQQLATALHQQQLMTQQAALQQKPTMAAGQQPQPQPAAAPQPAPAQEPAIQAPVRQQPKVQTTPPPAVQGQKVGSLTPPSSPKTQRAGHRRILSDVTHSAVFGVPASKSTQLLQAAAAEASLNKSKSATTTPSGSPRTSQQNVYNPSEGSTWNPFDDDNFSKLTAEELLNKDFAKLGEGKHPEKLGGSAESLIPGFQSTQGDAFATTSFSAGTAEKRKGGQTVDSGLPLLSVSDPFIPLQVPDAPEKLIEGLKSPDTSLLLPDLLPMTDPFGSTSDAVIGKVIISVSSVMHDMCACFKNDKYLVNQSLGNSPATPEAKAI”, the “soluble on expression in E. coli” value was “soluble”.
For “EERFGHLLHKVEWVSLGGGIHFTGEDYAVDAFCARLKAFSEKYGVQVYLEPGEAAITNSASLEVTVLDTLYNGKHLAVVDSSIEAHLLDLLIYRLNAKMAPNDGEHTYMVCGKSCLAGDIFGEYQFDRPLAIGDRLSFIDTAGYTMVKKNWFNGLKMPSIVVKQLDGSVEVVREFGFEDYVSSLS”, the “soluble on expression in E. coli” value was “not soluble”.
For “EEYPDGFAPMKPDQAEEAVLAGIALSACLIETNRRERFADRLRAAAGALREDWVVKIGDNHVAARLLDGLVTIPFDMDIAIEGAIEGESKSVVTDWR”, the “soluble on expression in E. coli” value was “not soluble”.
For “EHAKQASSYIPLDRLSISYCRSSGPGGQNVNKVNSKAEVRFHLASADWIEEPVRQKIALTHKNKINKAGELVLTSESSRYQFRNLAECLQKIRDMIAEA”, the “soluble on expression in E. coli” value was “soluble”.
In the case of “EHMQHLAMKGARFDIVLLPSSPTAHGLEQVQFQVAANKGNPPRPLNKVASGGELARISLALQVVASQYTQVPTLIFDEVDTGIGGGVAEMVGKALRALGRKHQVLAVTHLPQVASCGENHWRVRKHSEGEQTVSEISILDEIQRIEEVARMLGGEVITDTTRQHAAELLQLASKNSLF”, the “soluble on expression in E. coli” value is reported as “not soluble”.
For “EIDGTTYVDGGLFKDLPASVIREDCRYLIGVHLNPKEPSDYKKSLFGIAERCFGYIFRANSLPDRKLCDLLIESREIIKFKPFHVEPAEEIAAFGYKMAKQVLKTTSITRNP”, the “soluble on expression in E. coli” value was “not soluble”.
In the case of “EIRLSNTQQTYAFLKKRLRDYKNETFAALFLDNQHRIIAYEELFSGTINTATVYPRPIVERVLQLNAAALILAHNHPSGLSDASQQDLAITERIRDALDLVDARLLDHIVIGDNEVYSIFAENKWVCN”, the “soluble on expression in E. coli” value is reported as “not soluble”.
For “EKALSKQYLQTAKDKITSLKNLKVIAITGSFGKTSTKNFLLQILQTTFNAHASPKSVNTLLGLANDINQNLDDRSEIYIAEAGARNKGDIKEITCLIEPHLVVVAEVGEQHLEYFKTLENICETKAELLDSKRLEKAFCYSVEKIKPYAPKDSPLIDYSSLVKNIQSTLKGTSFEMLIGSVWERFETKVLGEFSAYNIASAILIAKHLGLETERIKRLVLELNPIAHRLQLLEVNQKIIIDDSFNGNLKGMLEGIRLASLHKGRKVIVTPGLVESNTESNEALAQKIDGVFDVAIITGELNSKTIASQLKTPQKILLKDKAQLENILQATTIQGDLILFANDAPNYI”, the “soluble on expression in E. coli” value was “not soluble”.
With “EKKRIESLINNMYDPVIGLDENLKILFVNEQAIKIIGISQEELIGHYTQELAIKNDLVRTLVQDLMVAENTPSNKAIPIKIYSNNKEGYFEKEILHISVTPTGEQVKQLIGHVIILRNIT” the “soluble on expression in E. coli” value was “not soluble”.
For “ELGIKRESKLEFKLWYDDEKTPEALVFVVQGMGDDISSIQYVGDYMVRQFNTAVVGVNYHCIGNRPQTGSSFFMDDIDKLILKASCEAADIKLPYDVDKIQDYKAMSEIFHFVNNQIVEGKQKGNFTPNYFLNLHVSLQPTKNEYQNFGIMQAQDLLNVALYLKKHAPFDTMGGGIPIIMIGGSHGGYLAHLAAKIAPWLVDGVLDNSAYAKFLWRVVGFGKEIDFMQYSEFATFDFFHHIKTHCSTKTFWTSNSSSPRFFSPARRKIRNLLEEDHLLKQSKCLKTCFISYHSLYDEYVSLKEKTMFYEELEKLGFDVTLHSIT”, the “soluble on expression in E. coli” value was “not soluble”.
For “ENPRNVGSLDKTSKNVGTGLVGAPACGDVMKLQIQVDEKGKIVDARFKTFGCGSAIASSSLATEWVKGKTVEEALTIKNTDIAKELCLPPVKLHCSMLAEDAIKAALADYKLKQESK”, the “soluble on expression in E. coli” value was “soluble”.
In the case of “EPEQVIRKYTEELKVAPEEDCIICMEKLAVASGYSDMTDSKALGPMVVGRLTKCSHAFHLLCLLAMYCNGNKDGSLQCPSCKTIYGEKTGTQPWGKMEVFR”, the “soluble on expression in E. coli” value is reported as “soluble”.
With “EPPDGKAISDGFNLLQELSAVNRENQLTPLGRQLARLPVDPRMGRMLLEAAKQGSLQEVLIVASAMSVQDVRERPPERQQAADQAHAQWKDAD” the “soluble on expression in E. coli” value was “not soluble”.
With “EPVVVSAADGEIRTGNDHLCDLLDSDPSDVFGSQIGTFFPGLDDVDLRAHCSQSPGTPLTSSCSAGGTERWVEIAFEPQQWDG” the “soluble on expression in E. coli” value was “not soluble”.
With “EQEVSLDLILVEEYDSLIEKMSNWNFPIFELVEKMGEKSGRILSQVMYTLFQDTGLLEIFKIPTQQFMNYFRALENGYRDIPYHNRIHATDVLHAVWYLTTRPVPGLQQIHNGCGTGNETDSDGRINHGRIAYISSKSCSNPDESYGCLSSNIPALELMALYVAAAMHDYDHPGRTNAFLVATNAPQAVLYNDRSVLENHHAASAWNLYLSRPEYNFLLHLDHVEFKRFRFLVIEAILATDLKKHFDFLAEFNAKANDVNSNGIEWSNENDRLLVCQVCIKLADINGPAKVRDLHLKWTEGIVNEFYEQGDEEANLGLPISPFMDRSSPQLAKLQESFITHIVGPLCNSYDAAGLLPGQWLEAEEDNDTESGDDEDGEELDTEDEEMENNLNPKPPRRKSRRRIFCQLMHHLTENHKIWK” the “soluble on expression in E. coli” value was “soluble”.
For “EQPKCNVRVVEMTYTTVGVVGEATRASGVVLVPDGPQCPGPYPVLGWGRDGQTFRRSEQAKSIISAKGDDPLVTRLASQGYVVVGTDYLGLGGSNYPYHPYLHANSEASALIDALRASRTVLQHLNTPLSNKLMLSGFSQGGHTAMATQREIEAHLSNE”, the “soluble on expression in E. coli” value was “not soluble”.
With “EQSAYRIHSAYMVGGGGSITRDTYLSPLRYGGWTLNLLGEKTFPLKASDSRWMIRTGHELDFALMDNPANNAHFYSLLYNGSAAALYRLGAKHLRAAWMDNLRLAFGPGLEIGLGGIYSTRNGNNPATLKLYTNAIAQASIGYYVPSETFPLYFRLLSQINLFGIAYGNGFGESYYENFLLNNGIAGSLHFTYPGKFTRFTTLITADIPIRNFCTLRVGYRYSHLGSSLNALDTRIHSHTAFIGFVTEFYRFRGRKAMNTGRRTSLYYHD” the “soluble on expression in E. coli” value was “not soluble”.
For “ERSAVQLSLSSRLQLTLYQYKTCPFCSKVRAFLDFHALPYQVVEVNPVLRAEIKFSSYRKVPILVAQEGESSQQLNDSSVIISALKTYLVSGQPLEEIITYYPAMKAVNDQGKEVTEFGNKYWLMLNEKEAQQVYSGKEARTEEMKWRQWADDWLVHLISPNVYRTPTEALASFDYIVREGKFGAVEGAVAKYMGAAAMYLISKRLKSRHRLQDNVREDLYEAADKWVAAVGKDRPFMGGQKPNLADLAVYGVLRVMEGLDAFDDLMQHTHIQPWYLRVERAITEASPAH”, the “soluble on expression in E. coli” value was “soluble”.
For “EVPDLPEEPSETAEEVVTVALRCPNGRVLRRRFFKSWNSQVLLDWMMKVGYHKSLYRLSTSFPRRALEVEGGSSLEDIGITVDTVLNVEEKEQSSQ”, the “soluble on expression in E. coli” value was “soluble”.
In the case of “EVPDYLCCNITLEIFRDPVISPSGVTYERAAILEHLKKVGKFDPITREKIDPANLVPNLAIKEAVAAYLEKHVWAYKMGC”, the “soluble on expression in E. coli” value is reported as “soluble”.
In the case of “EVQLLESGGGLVQPGGSLRLSCAASGFTFEEYAMLWVRQAPGKGLEWVSGINARGYTTYYADSVKGRFTISRDNSKNTLYLQMNSLRTEDTAVYYCAKPWYPFMASKGSEFDYWGQGTLVTVSSAAALEIKRASQPELAPEDPEDVEHHHHHH”, the “soluble on expression in E. coli” value is reported as “soluble”.
In the case of “EVQLQESGPSLVKPSQTLSLTCSVTGEPITSGFWDWIRKFPGNKLEFMGYIRYGGGTYYNPSLKSPISITRDTSKNHYYLQLNSVVTEDTATYYCARSRDYYGSSGFAFWGEGTLVTVSAAKTTPPSVYPLAPGCGDTTGSSVTLGCLVKGYFPESVTVTWNSGSLSSSVHTFPALLQSGLYTMSSSVTVPSSTWPSQTVTCSVAHPASSTTVDKKLE”, the “soluble on expression in E. coli” value is reported as “soluble”.
For “EVQLQQSGAELVRPGALVKLSCKASGFNIKDYYMHWVKQRPEQGLELIGWIDPENGNTIYDPKFQDKASITADTSSNTAYLQLSSLTSEDTAVYYCARDTAAYFDYWGQGTTLTVSSAKTTPPSVYPLAPGSAAQTNSMVTLGCLVKGYFPEPVTVTWNSGSLSSGVHTFPAVLQSDLYTLSSSVTVPSSTWPSETVTCNVAHPASSTKVDKKKIP”, the “soluble on expression in E. coli” value was “soluble”.
With “EVQLVESGGGLVQPGGSLRLSCAASGFTFSRYTMSWVRQAPGKGLEWVATISGGGHTYYLDSVKGRFTISRDNSKNTLYLQMNSLRAEDTAVYYCTRGFGDGGYFDVWGQGTLVTVSSAKTTPPSVYPLAPGSAAQTNSMVTLGCLVKGYFPEPVTVTWNSGSLSSGVHTFPAVLQSDLYTLSSSVTVPSSTWPSETVTCNVAHPASSTKVDKKIVPRDCHHHHHH” the “soluble on expression in E. coli” value was “soluble”.
With “EVVVTGYGDFKKATYTGSASVLNTDKLESLPVVSVAQMMEANIPGLSSVASSSQPGSKATVRVRGIASMNASTEPLYVLDGVPVASRDMSGLSANASAGGLGLIETLNPADIESITVLKDAASASLYGAKGSNGVILI” the “soluble on expression in E. coli” value was “not soluble”.
For “FAEDPSPYVLLDRDLTMIWANAAYLRATGLARDEVVGRRMFDVFPAEAESIPDQMLRASLRRAVEQGRPDHLPLIPYPIRNQDGRMEERFWSATNTPIKDAEGHVEFILQNTNDIT”, the “soluble on expression in E. coli” value was “not soluble”.
In the case of “FNSSINNIHEMEIQLKDALEKNQQWLVYDQQREVYVKGLLAKIFELEKKTETAAHSLP”, the “soluble on expression in E. coli” value is reported as “soluble”.
